T1: Mcm4 (S. cerevisiae, UniProt P30665 1-933)
T1 construct: Mcm4, S. cerevisiae; Subunit as it stands in the DH of the cryo-EM structures; modelled from residue 155 in the DDK-engaged model; also called Mcm4 subunit; source: S. cerevisiae, overexpressed as Mcm2-7-Cdt1, purified; in the DNA-loaded double hexamer
T1 sequence: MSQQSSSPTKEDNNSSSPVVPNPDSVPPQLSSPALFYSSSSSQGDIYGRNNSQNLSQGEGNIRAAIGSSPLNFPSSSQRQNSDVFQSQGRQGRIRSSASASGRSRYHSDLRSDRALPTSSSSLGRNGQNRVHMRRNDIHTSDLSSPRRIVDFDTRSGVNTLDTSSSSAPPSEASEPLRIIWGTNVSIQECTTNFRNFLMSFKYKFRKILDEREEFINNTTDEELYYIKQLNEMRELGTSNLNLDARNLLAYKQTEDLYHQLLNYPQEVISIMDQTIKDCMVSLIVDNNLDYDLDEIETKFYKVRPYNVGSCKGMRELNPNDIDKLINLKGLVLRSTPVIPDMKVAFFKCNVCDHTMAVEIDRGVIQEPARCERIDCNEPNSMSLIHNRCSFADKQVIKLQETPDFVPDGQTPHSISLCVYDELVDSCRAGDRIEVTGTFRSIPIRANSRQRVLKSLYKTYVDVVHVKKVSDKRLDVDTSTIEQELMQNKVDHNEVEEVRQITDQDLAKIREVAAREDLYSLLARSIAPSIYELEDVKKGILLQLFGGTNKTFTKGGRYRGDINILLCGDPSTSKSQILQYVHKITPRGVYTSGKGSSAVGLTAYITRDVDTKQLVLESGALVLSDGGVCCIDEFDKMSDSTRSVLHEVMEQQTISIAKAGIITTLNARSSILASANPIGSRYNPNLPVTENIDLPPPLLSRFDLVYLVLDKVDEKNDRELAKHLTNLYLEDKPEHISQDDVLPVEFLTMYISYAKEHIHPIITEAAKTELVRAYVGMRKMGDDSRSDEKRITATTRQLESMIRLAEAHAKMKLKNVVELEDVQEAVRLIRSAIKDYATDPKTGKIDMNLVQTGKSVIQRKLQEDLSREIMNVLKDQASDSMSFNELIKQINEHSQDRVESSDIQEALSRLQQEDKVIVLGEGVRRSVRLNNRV

T2: Mcm2 (S. cerevisiae, UniProt P29469 1-868)
T2 construct: Mcm2, S. cerevisiae; Subunit as it stands in the DH of the cryo-EM structures; also called Mcm2 subunit; source: S. cerevisiae, overexpressed as Mcm2-7-Cdt1, purified; in the DNA-loaded double hexamer
T2 sequence: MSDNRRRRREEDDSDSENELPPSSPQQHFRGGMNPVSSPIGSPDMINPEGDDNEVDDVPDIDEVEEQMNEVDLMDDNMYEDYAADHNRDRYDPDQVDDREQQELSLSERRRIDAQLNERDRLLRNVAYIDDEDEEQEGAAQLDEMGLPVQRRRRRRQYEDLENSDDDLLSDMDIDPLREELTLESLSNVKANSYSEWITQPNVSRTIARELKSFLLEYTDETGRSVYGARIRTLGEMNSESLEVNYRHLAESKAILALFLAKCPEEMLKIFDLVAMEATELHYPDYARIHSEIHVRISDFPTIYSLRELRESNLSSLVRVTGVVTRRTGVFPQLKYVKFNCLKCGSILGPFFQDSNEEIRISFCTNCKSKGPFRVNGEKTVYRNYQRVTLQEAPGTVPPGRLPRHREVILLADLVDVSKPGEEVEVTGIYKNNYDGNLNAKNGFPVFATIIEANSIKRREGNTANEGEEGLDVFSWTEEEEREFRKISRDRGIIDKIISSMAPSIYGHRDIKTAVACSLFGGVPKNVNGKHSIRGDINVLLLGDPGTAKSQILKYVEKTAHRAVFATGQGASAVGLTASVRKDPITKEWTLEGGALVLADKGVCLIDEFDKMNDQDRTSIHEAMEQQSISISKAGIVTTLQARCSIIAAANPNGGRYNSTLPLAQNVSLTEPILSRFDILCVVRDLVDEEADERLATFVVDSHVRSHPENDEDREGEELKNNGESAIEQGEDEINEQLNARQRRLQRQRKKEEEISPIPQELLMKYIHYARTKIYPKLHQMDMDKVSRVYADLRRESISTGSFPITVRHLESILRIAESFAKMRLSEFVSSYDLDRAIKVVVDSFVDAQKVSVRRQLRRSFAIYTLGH

B1: Mcm7 (natural protein, S. cerevisiae)
chain: MSAALPSIQLPVDYNNLFNEITDFLVTFKQDTLSSDATRNENEDENLDAENIEQHLLEKGPKYMAMLQKVANRELNSVIIDLDDILQYQNEKFLQGTQADDLVSAIQQNANHFTELFCRAIDNNMPLPTKEIDYKDDVLDVILNQRRLRNERMLSDRTNEIRSENLMDTTMDPPSSMNDALREVVEDETELFPPNLTRRYFLYFKPLSQNCARRYRKKAISSKPLSVRQIKGDFLGQLITVRGIITRVSDVKPAVEVIAYTCDQCGYEVFQEVNSRTFTPLSECTSEECSQNQTKGQLFMSTRASKFSAFQECKIQELSQQVPVGHIPRSLNIHVNGTLVRSLSPGDIVDVTGIFLPAPYTGFKALKAGLLTETYLEAQFVRQHKKKFASFSLTSDVEERVMELITSGDVYNRLAKSIAPEIYGNLDVKKALLLLLVGGVDKRVGDGMKIRGDINVCLMGDPGVAKSQLLKAICKISPRGVYTTGKGSSGVGLTAAVMKDPVTDEMILEGGALVLADNGICCIDEFDKMDESDRTAIHEVMEQQTISISKAGINTTLNARTSILAAANPLYGRYNPRLSPLDNINLPAALLSRFDILFLMLDIPSRDDDEKLAEHVTYVHMHNKQPDLDFTPVEPSKMREYIAYAKTKRPVMSEAVNDYVVQAYIRLRQDSKREMDSKFSFGQATPRTLLGIIRLSQALAKLRLADMVDIDDVEEALRLVRVSKESLYQETNKSKEDESPTTKIFTIIKKMLQETGKNTLSYENIVKTVRLRGFTMLQLSNCIQEYSYLNVWHLINEGNTLKFVDDGTMDTDQEDSLVSTPKLAPQTTASANVSAQDSDIDLQDA
notes: Mcm7, S. cerevisiae; also called Mcm7 subunit; source: S. cerevisiae, overexpressed as Mcm2-7-Cdt1, purified; in the DNA-loaded double hexamer
B2: Dbf4 (natural protein, S. cerevisiae)
chain: MVSPTKMIIRSPLKETDTNLKHNNGIAASTTAAGHLNVFSNDNNCNNNNTTESFPKKRSLERLELQQQQHLHEKKRARIERARSIEGAVQVSKGTGLKNVEPRVTPKELLEWQTNWKKIMKRDSRIYFDITDDVEMNTYNKSKMDKRRDLLKRGFLTLGAQITQFFDTTVTIVITRRSVENIYLLKDTDILSRAKKNYMKVWSYEKAARFLKNLDVDLDHLSKTKSASLAAPTLSNLLHNEKLYGPTDRDPRTKRDDIHYFKYPHVYLYDLWQTWAPIITLEWKPQELTNLDELPYPILKIGSFGRCPFIGDRNYDESSYKRVVKRYSRDKANKKYALQLRALFQYHADTLLNTSSVNDQTKNLIFIPHTCNDSTKSFKKWMQEKAKNFEKTELKKTDDSAVQDVRNEHADQTDEKNSILLNETETKEPPLKEEKENKQSIAEESNKYPQRKELAATPKLNHPVLATFARQETEEVPDDLCTLKTKSRQAFEIKASGAHQSNDVATSFGNGLGPTRASVMSKNMKSLSRLMVDRKLGVKQTNGNNKNYTATIATTAETSKENRHRLDFNALKKDEAPSKETGKDSAVHLETNRKPQNFPKVATKSVSADSKVHNDIKITTTESPTASKKSTSTNVTLHFNAQTAQTAQPVKKETVKNSGYCENCRVKYESLEQHIVSEKHLSFAENDLNFEAIDSLIENLRFQI
notes: Dbf4, S. cerevisiae; Subunit as it stands in DDK in the DH-DDK cryo-EM structure; also called Dbf4 subunit of DDK; CBP-Dbf4; source: S. cerevisiae, overexpressed with Cdc7, purified as DDK
B3: Cdc7 (enzyme, S. cerevisiae)
chain: MTSKTKNIDDIPPEIKEEMIQLYHDLPGIENEYKLIDKIGEGTFSSVYKAKDITGKITKKFASHFWNYGSNYVALKKIYVTSSPQRIYNELNLLYIMTGSSRVAPLCDAKRVRDQVIAVLPYYPHEEFRTFYRDLPIKGIKKYIWELLRALKFVHSKGIIHRDIKPTNFLFNLELGRGVLVDFGLAEAQMDYKSMISSQNDYDNYANTNHDGGYSMRNHEQFCPCIMRNQYSPNSHNQTPPMVTIQNGKVVHLNNVNGVDLTKGYPKNETRRIKRANRAGTRGFRAPEVLMKCGAQSTKIDIWSVGVILLSLLGRRFPMFQSLDDADSLLELCTIFGWKELRKCAALHGLGFEASGLIWDKPNGYSNGLKEFVYDLLNKECTIGTFPEYSVAFETFGFLQQELHDRMSIEPQLPDPKTNMDAVDAYELKKYQEEIWSDHYWCFQVLEQCFEMDPQKRSSAEDLLKTPFFNELNENTYLLDGESTDEDDVVSSSEADLLDKDVLLISE
notes: Cdc7, S. cerevisiae; Subunit as it stands in DDK in the DH-DDK cryo-EM structure; also called Cdc7 catalytic subunit of DDK; source: S. cerevisiae, overexpressed with CBP-Dbf4, purified as DDK

Legend:
Assay in all cases: cryo-EM structure; DH loaded with ORC, Cdc6 and Mcm2-7-Cdt1 (96 nM each) on MH-capped ARS1 DNA (8 nM) in buffer B at 30 °C, then 289 nM DDK for 50 min before plunge-freezing; neither crosslinking nor nucleotide analogs
Settings in all cases: both partners purified
Mcm4 = target: T1, Mcm4
Mcm3 = target: T3, Mcm3 (S. cerevisiae, UniProt P24279 1-971)
T3 construct: Mcm3, S. cerevisiae; also called Mcm3 subunit; source: S. cerevisiae, overexpressed as Mcm2-7-Cdt1, purified; in the DNA-loaded double hexamer

Mcm2 = target: T2, Mcm2
Dbf4 = target: B2

T3 sequence (P24279 whole entry): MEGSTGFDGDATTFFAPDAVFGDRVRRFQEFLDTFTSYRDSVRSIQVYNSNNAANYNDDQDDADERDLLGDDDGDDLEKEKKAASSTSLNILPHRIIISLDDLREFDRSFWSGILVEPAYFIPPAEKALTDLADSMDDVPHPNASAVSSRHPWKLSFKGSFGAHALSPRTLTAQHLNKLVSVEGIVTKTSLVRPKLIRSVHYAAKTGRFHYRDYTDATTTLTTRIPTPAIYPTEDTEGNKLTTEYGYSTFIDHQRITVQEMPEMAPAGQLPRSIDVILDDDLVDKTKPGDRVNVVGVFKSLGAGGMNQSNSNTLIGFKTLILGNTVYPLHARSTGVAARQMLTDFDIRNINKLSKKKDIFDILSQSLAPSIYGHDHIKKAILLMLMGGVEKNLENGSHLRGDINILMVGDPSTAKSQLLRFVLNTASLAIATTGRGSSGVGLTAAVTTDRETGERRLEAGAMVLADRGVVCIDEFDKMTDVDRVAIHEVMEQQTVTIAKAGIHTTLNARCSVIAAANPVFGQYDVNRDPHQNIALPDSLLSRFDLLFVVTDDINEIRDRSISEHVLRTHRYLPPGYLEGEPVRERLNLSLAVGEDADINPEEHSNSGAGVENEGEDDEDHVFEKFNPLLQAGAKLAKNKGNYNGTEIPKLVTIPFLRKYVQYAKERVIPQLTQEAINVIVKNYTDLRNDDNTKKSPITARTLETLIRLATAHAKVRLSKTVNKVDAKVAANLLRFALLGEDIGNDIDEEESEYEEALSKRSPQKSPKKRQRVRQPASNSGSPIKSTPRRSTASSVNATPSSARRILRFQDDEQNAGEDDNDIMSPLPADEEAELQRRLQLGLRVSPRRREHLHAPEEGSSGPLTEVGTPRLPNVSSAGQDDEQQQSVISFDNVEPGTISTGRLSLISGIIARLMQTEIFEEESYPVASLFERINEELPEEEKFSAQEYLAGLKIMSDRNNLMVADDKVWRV

Binder: B1
- binding result (Mcm4): binds
- binding result (Mcm3): binds

Binder: B2
- binding result (Mcm4): binds
- binding result (Mcm2): binds

Binder: B3
- binding result (Dbf4): binds
- binding result (Mcm4): binds
